# Results published in publication PMC6698841.
# Where two headings read alike, the source gives them in different places.
# Assays:
# [1] = biological target: Variant 1051 (control; L234A/L235A on both heavy chains) (human); experiment: SPR; ProteOn XPR36, 25 °C; 10 mM HEPES, 150 mM NaCl, 3.4 mM EDTA, 0.05% Tween 20, pH 7.4; trastuzumab variants captured (approx. 500 RU) on amine-coupled recombinant HER-2 (GLM chip); FcγRs injected as analyte, five concentrations in 3-fold dilution; Equilibrium Fit model, mean of two or three runs
# [2] = biological target: Variant 791 (trastuzumab with heterodimerising CH3 mutations only, no CH2 mutations) (human); experiment: as above
# [3] = biological target: Control Rituximab v1261 (anti-CD20 rituximab with heterodimerising CH3 mutations, no CH2 mutations) (human); experiment: SPR; ProteOn XPR36, 25 °C; 10 mM HEPES, 150 mM NaCl, 3.4 mM EDTA, 0.05% Tween 20, pH 7.4; rituximab variants captured on amine-coupled goat anti-human Fc; FcγRs injected as analyte, five concentrations in 3-fold dilution; Equilibrium Fit model; ratios against homodimeric trastuzumab WT
# [4] = biological target: Variant 791 (trastuzumab with heterodimerising CH3 mutations only, no CH2 mutations) (human); experiment: SPR; ProteOn XPR36, 25 °C; 10 mM HEPES, 150 mM NaCl, 3.4 mM EDTA, 0.05% Tween 20, pH 7.4; trastuzumab variants captured (approx. 500 RU) on amine-coupled recombinant HER-2 (GLM chip); FcγRs injected as analyte, five concentrations in 3-fold dilution; Equilibrium Fit model, mean of two or three runs; remark: listed apart in the source
# [5] = biological target: Variant 1051 (control; L234A/L235A on both heavy chains) (human); experiment: as above; remark: listed apart in the source
# [6] = biological target: Control Rituximab v1261 (anti-CD20 rituximab with heterodimerising CH3 mutations, no CH2 mutations) (human); experiment: SPR; ProteOn XPR36, 25 °C; 10 mM HEPES, 150 mM NaCl, 3.4 mM EDTA, 0.05% Tween 20, pH 7.4; rituximab variants captured on amine-coupled goat anti-human Fc; FcγRs injected as analyte, five concentrations in 3-fold dilution; Equilibrium Fit model; ratios against homodimeric trastuzumab WT; remark: listed apart in the source
# Control Rituximab v1261 (anti-CD20 rituximab with heterodimerising CH3 mutations, no CH2 mutations) (human), sequence (heavy, as listed by the source, chain 1 of 2): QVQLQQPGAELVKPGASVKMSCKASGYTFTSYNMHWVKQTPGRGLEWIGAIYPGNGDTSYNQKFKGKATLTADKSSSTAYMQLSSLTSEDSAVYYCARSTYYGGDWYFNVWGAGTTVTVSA
# Control Rituximab v1261 (anti-CD20 rituximab with heterodimerising CH3 mutations, no CH2 mutations) (human), sequence (light, as listed by the source, chain 2 of 2): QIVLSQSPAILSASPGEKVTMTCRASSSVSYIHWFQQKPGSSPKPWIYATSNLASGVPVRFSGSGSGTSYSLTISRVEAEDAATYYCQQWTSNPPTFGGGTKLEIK
Molecule,Kamut/KaWT (WT: homodimeric trastuzumab) [1],Kamut/KaWT (WT: homodimeric trastuzumab) [2],Kamut/KaWT (WT: homodimeric trastuzumab) [3],Kamut/KaWT (WT: homodimeric trastuzumab) [4],Kamut/KaWT (WT: homodimeric trastuzumab) [5],Kamut/KaWT (WT: homodimeric trastuzumab) [6]
FcγR 1a (CD64) (from UniProt P12314 16-374) (receptor),0.01,,,,,
FcγR 2aH (from UniProt P12318 34-317) (receptor),0.06,1.7,1.9,,,
FcγR 2b (from UniProt P31994 43-310) (receptor),0.52,,1.9,,,
FcγR 3aF (from UniProt P08637 17-254) (receptor),0.29,,1.4,,,
"FcγR 2aR, P12318 34-317 (receptor, modifications not checked) QAAAPPKAVLKLEPPWINVLQEDSVTLTCQGARSPESDSIQWFHNGNLIPTHTQPSYRFKANNNDSGEYTCQTGQTSLSDPVHLTVLSEWLVLQTPHLEFQEGETIMLRCHSWKDKPLVKVTFFQNGKSQKFSRLDPTFSIPQANHSHSGDYHCTGNIGYTLFSSKPVTITVQVPSMGSSSPMG",,,,1.7,0.06,1.5
